This test deals with T1, recombinant HMG1 produced in E. coli as calmodulin binding protein (CBP) fusion (human).
T1 chain: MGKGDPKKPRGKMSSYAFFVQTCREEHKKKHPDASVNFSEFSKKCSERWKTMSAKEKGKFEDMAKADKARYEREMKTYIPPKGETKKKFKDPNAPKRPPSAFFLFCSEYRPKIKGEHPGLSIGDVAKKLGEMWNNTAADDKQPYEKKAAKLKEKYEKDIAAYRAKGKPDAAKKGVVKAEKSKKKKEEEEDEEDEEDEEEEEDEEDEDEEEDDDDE
The test can be described thus: BIAcore 3000; mAb amine-coupled to CM5, HMG1 injected in two-fold dilutions; steady-state model. The following applies: remark: other sources report otherwise. For orientation: SPR reads the build-up and loss of mass on a sensor chip optically.

B1: anti-HMG1 antibody G20 (antibody, V domains shown)
VH: EVQLLESGGGLVQPGGSLRLSCAASGFTFSWYDMFWVRQAPGKGLEWVSWISPSGGYTKYADSVKGRFTISRDNSKNTLYLQMNSLRAEDTAMYYCARSGLDYYDSSGYLDAFDIWGQGTMVTVSS
VL: AQDIQMTQSPSSVSASVGDRVTITCRASQDVSIWLAWYQQKPGKAPKLLIFGASRLQSGVPSRFSGSRSGADFTLTIDSVQPEDFASYYCQQADSFPLTFGGGTKVEIK
For the molecule B1, the Kd – broadly, the equilibrium constant for the complex coming apart – amounted to 0.114 µM.

B2: anti-HMG1 antibody S17 (antibody, V domains shown)
VH: EVQLLESGGGLVQPGGSLRLSCAASGFTFSYYDMHWVRQAPGKGLEWVSRISPSGGYTWYADSVKGRFTISRDNSKNTLYLQMNSLRAEDTAVYYCTRGRYTSGWHEYFDPWGQGTLVTVSS
VL: AQDIQMTQSPSSLSASVGDRVTITCRASQSIGTYLNWYQQKPGTAPKVLIYAASSLQSGVPSRFSGSGSGTDFTLTISSLQPEDFSTYYCQQSYNTPRTFGQGTKLEIK
Turning to B2, the Kd is 0.331 µM.

B3: anti-HMG1 antibody G2 (antibody, V domains shown)
VH: EVQLLESGGGLVQPGGSLRLSCAASGFTFSWYKMQWVRQAPGKGLEWVSGISPSGGSTAYADSVKGRFTISRDNSKNTLYLQMNSLRAEDTAVYYCAKMGLFNTGNSYVDYWGQGTLVTVSS
VL: AQSELTQPPSVSEAPGQRVTISCSGSTSNIGNNAVIWYQQLPGKAPKLLIYYDDLLPSGVSDRFSGSKSGTSGSLAISGLQSEDEADYYCASWDDNLNGPLFGGGTKLTVL
Consider B3, for which the Kd was 0.101 µM.

The values above are taken from patent publication US20090169546A1.
